The values that follow come from doi:10.1101/2025.09.29.679341 (bioRxiv, 2025).

This data set concerns the molecule itself. Briefly: cryo-EM structure.

One may read the stoichiometry N as a count of units in the complex or per binding partner.

B1: truncated β3-SBP (GABAA receptor β3 subunit, M3-M4 loop replaced by SQPARAA), from Expi293F cells (receptor)
chain: QSVNDPGNMSFVKETVDKLLKGYDIRLRPDFGGPPVCVGMNIDIASIDMVSEVNMDYTLTMYFQQYWRDKRLAYSGIPLNLTLDNRVADQLWVPDTYFLNDKKSFVHGVTVKNRMIRLHPDGTVLYGLRITTTAACMMDLRRYPLDEQNCTLEIESYGYTTDDIEFYWRGGDKAVTGVERIELPQFSIVEHRLVSRNVVFATGAYPRLSLSFRLKRNIGYFILQTYMPSILITILSWVSFWINYDASAARVALGITTVLTMTTINTHLRETLPKIPYVKAIDMYLMGCFVFVFLALLEYAFVNYIFFSQPARAAAIDRWSRIVFPFTFSLFNLVYWLYYVN
As to B1, the “stoichiometry N” value is 5.
